Experiment in all cases: cell_activity; CHO extrachromosomal LacZ assay
The target of data set [1] is T1, I-CreI heterodimer HBB8.3_B3 / HBB8.4_B4 (Chlamydomonas reinhardtii, UniProt P05725;P05725 SEQ:1-167,SEQ:1-167).
T1 chain 1: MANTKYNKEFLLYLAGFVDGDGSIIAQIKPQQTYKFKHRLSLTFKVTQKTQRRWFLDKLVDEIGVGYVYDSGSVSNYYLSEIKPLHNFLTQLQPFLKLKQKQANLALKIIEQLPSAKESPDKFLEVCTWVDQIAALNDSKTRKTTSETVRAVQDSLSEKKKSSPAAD
T1 chain 2: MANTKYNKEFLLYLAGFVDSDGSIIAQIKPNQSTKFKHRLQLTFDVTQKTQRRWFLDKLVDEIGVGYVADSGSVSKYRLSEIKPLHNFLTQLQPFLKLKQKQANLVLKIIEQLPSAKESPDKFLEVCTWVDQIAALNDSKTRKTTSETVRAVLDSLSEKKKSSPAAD

The target in data set [2] is T2, I-CreI heterodimer HBB8.3_H3 / HBB8.4_D4 (Chlamydomonas reinhardtii, UniProt P05725;P05725 SEQ:1-167,SEQ:1-167).
T2 chain 1: T1 chain 1 with G20S, Q31N, T33S, Y34G, R39K, A106V, I133V, Q153L
T2 chain 2: T1 chain 2 with S20G, T34V, R39H, F88L

In data set [3] the target is T3, I-CreI heterodimer HBB8.3_K3 / HBB8.4_B4 (Chlamydomonas reinhardtii, UniProt P05725;P05725 SEQ:1-167,SEQ:1-167).
T3 chain 1: T1 chain 1 with G20S, Y78I, A106V, Q153L
T3 chain 2: T1 chain 2

In data set [4] the target is T4, I-CreI heterodimer HBB8.3_D3 / HBB8.4_A4 (Chlamydomonas reinhardtii, UniProt P05725;P05725 SEQ:1-167,SEQ:1-167).
T4 chain 1: T1 chain 1 with G20S, Q31N, T33S, Y34G, R39K, A106V, E118G, Q153L
T4 chain 2: T1 chain 2 with S20G, T34V, R39H, F88L, Q132R

Data set [5] has as its target T5, I-CreI heterodimer HBB8.3_K3 / HBB8.4_D4 (Chlamydomonas reinhardtii, UniProt P05725;P05725 SEQ:1-167,SEQ:1-167).
T5 chain 1: T1 chain 1 with G20S, Y78I, A106V, Q153L
T5 chain 2: T1 chain 2 with S20G, T34V, R39H, F88L

The target of data set [6] is T6, I-CreI heterodimer HBB8.3_A3 / HBB8.4_C4 (Chlamydomonas reinhardtii, UniProt P05725;P05725 SEQ:1-167,SEQ:1-167).
T6 chain 1: T1 chain 1 with K45Q, L59Q, Y69A, Y78R, F88L, A106V, Q153L
T6 chain 2: T1 chain 2 with T34V

The target of data set [7] is T7, I-CreI heterodimer HBB8.3_C3 / HBB8.4_D4 (Chlamydomonas reinhardtii, UniProt P05725;P05725 SEQ:1-167,SEQ:1-167).
T7 chain 1: T1 chain 1 with Q31N, T33S, Y34G, R39K, A106V, I133V, Q153L
T7 chain 2: T1 chain 2 with S20G, T34V, R39H, F88L

The target of data set [8] is T8, I-CreI heterodimer HBB8.3_J3 / HBB8.4_C4 (Chlamydomonas reinhardtii, UniProt P05725;P05725 SEQ:1-167,SEQ:1-167).
T8 chain 1: T1 chain 1 with K45Q, Y69A, Y78R, F88L, A106V, Q153L
T8 chain 2: T1 chain 2 with T34V

For data set [9], the target named is T9, I-CreI heterodimer HBB8.3_E3 / HBB8.4_A4 (Chlamydomonas reinhardtii, UniProt P05725;P05725 SEQ:1-167,SEQ:1-167).
T9 chain 1: T1 chain 1 with G20S, V65I, A106V, Q153L
T9 chain 2: T1 chain 2 with S20G, T34V, R39H, F88L, Q132R

Experimental findings from patent US20100229252, “MEGANUCLEASE VARIANTS CLEAVING A DNA TARGET SEQUENCE FROM THE HUMAN HEMOGLOBIN BETA GENE AND USES THEREOF” (CELLECTIS, published 2010) are described below.

Where a chain is given by its changes, count along the chain named.

B1: HBB8 (dsDNA)
DNA 1: CTGACTCCTGTGGAGAAGTCTG
DNA 2: CAGACTTCTCCACAGGAGTCAG
For B1, the activity in [1] was determined as 2.29 absorbance units; in data set [2], 2.1 absorbance units; in [3], 2.06 absorbance units; in [4], 1.53 absorbance units; in data set [5], 1.93 absorbance units; in data set [6], 1.56 absorbance units. The results for the activity in data set [7], in data set [8] and in [9] were 0.72 absorbance units, 2.21 absorbance units and 2.52 absorbance units, respectively.

B2: HBB6 (dsDNA)
DNA 1: CTGACTCCTGAGGAGAAGTCTG
DNA 2: CAGACTTCTCCTCAGGAGTCAG
Consider B2, for which the activity stood at 1.21 absorbance units in [1]; 1.84 absorbance units in data set [2]; 1.57 absorbance units in data set [3]; 1.23 absorbance units in data set [4]; 1.63 absorbance units in [5]; 0.68 absorbance units in [6]. Besides, the activity in data set [7] was determined as 0.37 absorbance units; in data set [8], 1.88 absorbance units; in data set [9], 2.04 absorbance units.
